Positions count from the first letter of the chain named. Names may count otherwise.
T1: Suc-APQ-pNA
T1 chain: APQ

T2: Suc-APE-pNA
T2 chain: APE

T3: fluorescently quenched α-gliadin hexapeptide analogue QXL520-PQPQLP-K(5-FAM)-NH2
T3 chain: PQPQLP

T4: Suc-APR-pNA
T4 chain: APR

T5: immunodominant α9-gliadin peptide QLQPFPQPQLPY
T5 chain: QLQPFPQPQLPY

B1: KumaMax™ (Kumamolisin-As V119D, S262K, N291D, D293T, G319S, D358G, D368H) (protein)
chain: AAPTAYTPLDVAQAYQFPEGLDGQGQCIAIIELGGGYDEASLAQYFASLGVPAPQVVSVSVDGASNQPTGDPKGPDGEVELDIEVAGALAPGAKFAVYFAPDTTAGFLDAITTAIHDPTLKPSVVSISWSGPEDSWTSAAIAAMNRAFLDAAALGVTVLAAAGDSGSTGGEQDGLYHVHFPAASPYVLACGGTRLVASGGRIAQETVWNDGPDGGATGGGVSRIFPLPAWQEHANVPPSANPGASSGRGVPDLAGNADPATGYEVVIDGEATVIGGTSAVAPLFAALVARINQKLGKAVGYLNPTLYQLPADVFHDITEGNNDIANRAQIYQAGPGWDPCTGLGSPIGVRLLQALLPSASQPQPGSTENLYFQSGALEHHHHHH
B2: Kumamolisin-As (wild type) (protein)
chain: B1 chain with K73S, D102N, T104D, S130G, G169D, H179D
B3: Kumamolisin-As N291D, Q361D (protein)
chain: B1 chain with K73S, T104D, S130G, G169D, Q172D, H179D
B4: Kumamolisin-As N291D, G319S, D358G, D368H (protein)
chain: B1 chain with K73S, T104D
B5: Kumamolisin-As N291D (protein)
chain: B1 chain with K73S, T104D, S130G, G169D, H179D
B6: Kumamolisin-As S354N, D358G, D368H (protein)
chain: B1 chain with K73S, D102N, T104D, S130G, S165N
B7: Kumamolisin-As N291D, D293A, G319S, D358G, Q361D, D368H (protein)
chain: B1 chain with K73S, T104A, Q172D
B8: Kumamolisin-As S262K, D293N, N291D, G319S, D358G, D368H (protein)
chain: B1 chain with T104N
B9: Kumamolisin-As D358N (protein)
chain: B1 chain with K73S, D102N, T104D, S130G, G169N, H179D
B10: Kumamolisin-As N291D, D293A, D358N (protein)
chain: B1 chain with K73S, T104A, S130G, G169N, H179D
B11: Kumamolisin-As G319S, S354N, D358G, D368H (protein)
chain: B1 chain with K73S, D102N, T104D, S165N
B12: Kumamolisin-As D358G (protein)
chain: B1 chain with K73S, D102N, T104D, S130G, H179D
B13: Kumamolisin-As G319S, D358G, D368H (protein)
chain: B1 chain with K73S, D102N, T104D
B14: Kumamolisin-As D293T, N291D, G319S, D358G, D368H (protein)
chain: B1 chain with K73S
B15: Kumamolisin-As N291D, G319S, S354N, D358G, Q361D, D368H (protein)
chain: B1 chain with K73S, T104D, S165N, Q172D
B16: Kumamolisin-As D293A (protein)
chain: B1 chain with K73S, D102N, T104A, S130G, G169D, H179D
B17: Kumamolisin-As N291D, Q361D, D358G (protein)
chain: B1 chain with K73S, T104D, S130G, Q172D, H179D
B18: Kumamolisin-As N291D, D293A, Q361D, D358N (protein)
chain: B1 chain with K73S, T104A, S130G, G169N, Q172D, H179D
B19: Kumamolisin-As N291D, D293A (protein)
chain: B1 chain with K73S, T104A, S130G, G169D, H179D
B20: Kumamolisin-As N291D, D358N (protein)
chain: B1 chain with K73S, T104D, S130G, G169N, H179D
B21: Kumamolisin-As T292S, N291D, G319S, D358G, D368H (protein)
chain: B1 chain with K73S, T103S, T104D
B22: Kumamolisin-As N291D, D293A, D358G, Q361D (protein)
chain: B1 chain with K73S, T104A, S130G, Q172D, H179D
B23: Kumamolisin-As D358G, D368H (protein)
chain: B1 chain with K73S, D102N, T104D, S130G
B24: Kumamolisin-As G319S, D368S (protein)
chain: B1 chain with K73S, D102N, T104D, G169D, H179S
B25: Kumamolisin-As S262G, T292S, N291D, G319S, D358G, D368H (protein)
chain: B1 chain with K73G, T103S, T104D
B26: Kumamolisin-As N291D, G319S, D358G, Q361D, D368H (protein)
chain: B1 chain with K73S, T104D, Q172D
B27: Kumamolisin-As N291D, G319S, S354N, D358G, D368H (protein)
chain: B1 chain with K73S, T104D, S165N
B28: Kumamolisin-As N291D, D293A, G319S, S354N, D358G, Q361D, D368H (protein)
chain: B1 chain with K73S, T104A, S165N, Q172D
B29: Kumamolisin-As T357A (protein)
chain: B1 chain with K73S, D102N, T104D, S130G, T168A, G169D, H179D

Molecular target: T1, Suc-APQ-pNA

Q: B1 was tested. Which Catalytic Efficiency (kcat/KM) did it give?
A: 6.7 M⁻¹ s⁻¹

Molecular target: T2, Suc-APE-pNA

Q: B1 was tested. Which Catalytic Efficiency (kcat/KM) did it give?
A: 1.4 M⁻¹ s⁻¹

Q: And the “fold decrease in activity compared to its activity on the PQ substrate” value?
A: roughly 5-fold decrease in activity on the PE peptide substrate compared to its activity on the PQ substrate

Q: Which Catalytic Efficiency (kcat/KM) does the source give for B2 here?
A: 4 M⁻¹ s⁻¹

Molecular target: T3, fluorescently quenched α-gliadin …

Q: With B3 as the protein, how does the Fold Change in Activity of PQ Hydrolysis Relative to Wild Type Kumamolysin-As read?
A: 7.5 fold

Q: How did the Fold Change in Activity of PQ Hydrolysis Relative to Wild Type Kumamolysin-As turn out when B4 was run?
A: 93 fold

Q: Which Fold Change in Activity of PQ Hydrolysis Relative to Wild Type Kumamolysin-As does the source give for B5 here?
A: 10 fold

Q: B6 was tested. Which Fold Change in Activity of PQ Hydrolysis Relative to Wild Type Kumamolysin-As did it give?
A: 9 fold

Q: Which Fold Change in Activity of PQ Hydrolysis Relative to Wild Type Kumamolysin-As does the source give for B7 here?
A: 40.9 fold

Q: How did the Fold Change in Activity of PQ Hydrolysis Relative to Wild Type Kumamolysin-As turn out when B8 was run?
A: 62 fold

Q: Which Fold Change in Activity of PQ Hydrolysis Relative to Wild Type Kumamolysin-As does the source give for B9 here?
A: 4 fold

Q: How did the Fold Change in Activity of PQ Hydrolysis Relative to Wild Type Kumamolysin-As turn out when B10 was run?
A: 24 fold

Q: Which Fold Change in Activity of PQ Hydrolysis Relative to Wild Type Kumamolysin-As does the source give for B11 here?
A: 5 fold

Q: For B12, which Fold Change in Activity of PQ Hydrolysis Relative to Wild Type Kumamolysin-As is on record?
A: 3 fold

Q: With B1 as the protein, how does the Catalytic Efficiency (kcat/KM) read?
A: 568 M⁻¹ s⁻¹

Q: What about the Fold Change in Activity of PQ Hydrolysis Relative to Wild Type Kumamolysin-As of the same protein?
A: 120 fold

Q: Which results are given for B2?
A: Catalytic Efficiency (kcat/KM): 4.9 M⁻¹ s⁻¹; Fold Change in Activity of PQ Hydrolysis Relative to Wild Type Kumamolysin-As: 1 fold

Q: How did the Fold Change in Activity of PQ Hydrolysis Relative to Wild Type Kumamolysin-As turn out when B13 was run?
A: 7 fold

Q: B14 was tested. Which Fold Change in Activity of PQ Hydrolysis Relative to Wild Type Kumamolysin-As did it give?
A: 58 fold

Q: How did the Fold Change in Activity of PQ Hydrolysis Relative to Wild Type Kumamolysin-As turn out when B15 was run?
A: 50 fold

Q: Which Fold Change in Activity of PQ Hydrolysis Relative to Wild Type Kumamolysin-As does the source give for B16 here?
A: 3 fold

Q: How did the Fold Change in Activity of PQ Hydrolysis Relative to Wild Type Kumamolysin-As turn out when B17 was run?
A: 20 fold

Q: Which Fold Change in Activity of PQ Hydrolysis Relative to Wild Type Kumamolysin-As does the source give for B18 here?
A: 14.8 fold

Q: With B19 as the protein, how does the Fold Change in Activity of PQ Hydrolysis Relative to Wild Type Kumamolysin-As read?
A: 15 fold

Q: How did the Fold Change in Activity of PQ Hydrolysis Relative to Wild Type Kumamolysin-As turn out when B20 was run?
A: 18.9 fold

Q: How did the Fold Change in Activity of PQ Hydrolysis Relative to Wild Type Kumamolysin-As turn out when B21 was run?
A: 49 fold

Q: Which Fold Change in Activity of PQ Hydrolysis Relative to Wild Type Kumamolysin-As does the source give for B22 here?
A: 15 fold

Q: How did the Fold Change in Activity of PQ Hydrolysis Relative to Wild Type Kumamolysin-As turn out when B23 was run?
A: 6 fold

Q: For B24, which Fold Change in Activity of PQ Hydrolysis Relative to Wild Type Kumamolysin-As is on record?
A: 2 fold

Q: With B25 as the protein, how does the Fold Change in Activity of PQ Hydrolysis Relative to Wild Type Kumamolysin-As read?
A: 29 fold

Q: With B26 as the protein, how does the Fold Change in Activity of PQ Hydrolysis Relative to Wild Type Kumamolysin-As read?
A: 23.1 fold

Q: B27 was tested. Which Fold Change in Activity of PQ Hydrolysis Relative to Wild Type Kumamolysin-As did it give?
A: 54.6 fold

Q: How did the Fold Change in Activity of PQ Hydrolysis Relative to Wild Type Kumamolysin-As turn out when B28 was run?
A: 58 fold

Q: Which Fold Change in Activity of PQ Hydrolysis Relative to Wild Type Kumamolysin-As does the source give for B29 here?
A: 2 fold

Molecular target: T4, Suc-APR-pNA

Q: For B2, which Catalytic Efficiency (kcat/KM) is on record?
A: 132 M⁻¹ s⁻¹

Molecular target: T5, immunodominant α9-gliadin peptide …

Q: Which results are given for B1?
A: fraction of immunogenic peptide proteolyzed after 50 minutes (LC-MS, pH 4, 37° C.): over 95% of the immunogenic peptide had been proteolyzed after a 50 minute incubation; half-life of the peptide in the presence of KumaMax: 8.5 ± 0.7 min
